Residue numbers refer to the chain shown, from its start. Numbers in names are those of the source.

Common to all, as to assay type: biochemical, Z. mays
The test system of data set [1] is 4-hydroxyphenylpyruvate dioxygenase (HPPD). As to the kind of experiment: HPPD activity coupled assay with HGD; substrate saturation kinetic parameters (kcat, KM). The note with it: Table 6; for kcat: single substitutions in SEQ ID NO:2. Here is the method:
Wild type and shuffled variant genes were cloned into pVER7062, a modified version of pET24a(+)(Novagen), which places six histidine residues at the N-terminus of the expressed protein. Vectors were electroporated into E. coli host strain BL21(DE3). Cells were grown at 30 C in rich medium such as 2×YT containing the selection antibiotic, kanamycin. At a density of about 0.6 OD600, IPTG was added to 0.2 mM, the temperature was reduced to 16 C and growth continued for another 24 hrs. Cells were harvested by centrifugation and stored at −80 C. Cell pellets were lysed in BPER (Pierce) protein extraction reagent containing 0.2 mg/ml lysozyme, 1 mM dithiothreitol, protease inhibitor cocktail (Sigma, bacterial cocktail) and endonuclease. Insoluble cellular debris was removed by centrifugation. HPPD protein was purified from the soluble protein solution by affinity chromatography on the nickel form of nitrilotriacetic acid (Ni-NTA) resin (Qiagen). Protein concentrations were determined by the Bradford method, as supplied by Bio-Rad.
HPPD catalyzes the conversion of 4-hydroxyphenylpyruvate (HPP) to homogentisate (FIG. 17). […] However, the product of the ensuing reaction in tyrosine metabolism, maleylacetoacetate, absorbs strongly at 320 nm. Furthermore, the enzyme catalyzing that reaction is also a dioxygenase having similar mechanism and buffer requirements as HPPD, making homogentisate dioxygenase (HGD) an ideal partner in a coupled assay, as shown.
The HDG gene from Pseudomonas aeruginosa (Amaya (2004) Arch Biochem Biophys 421, 135-142) was cloned into pVER7062 and electroporated into E. coli strain BL21(DE3). The enzyme was produced by methods similar to those described for HPPD. The purified enzyme has a KM for homogentisate of 23 μM and a kcat of 100/sec, properties highly suited for instantly converting the homogentisate produced by HPPD to maleylacetoacetate.
HPPD activity was measured by placing an aliquot (e.g., 6 μl) of the substrate HPP at 50-fold the desired final concentration into the wells of a low UV-absorbing assay plate. Reactions were started by adding a mixture (e.g., 294 μl) containing 25 mM Hepes, pH 7, 2 mM ascorbate, 10 μM FeSO4, 1 to 100 μM HPP, 50 nM HGD and 5 to 240 nM HPPD. Absorbance at 320 nm was monitored continuously in a plate-reading spectrophotometer (Spectramax, Molecular Devices).
The catalytic performance of wild-type HPPD and variants generated by shuffling was assessed by determining the substrate saturation kinetic parameters. The Michaelis-Menten kinetics protocol of the Spectramax software was customized for HPP concentrations ranging from 3.33 μM to 100 μM. Reaction rates were measured as described above for each concentration of HPP. The software returns values of KM and Vmax using the Lineweaver-Burke transformation of the Michaelis-Menten equation.

The test system is the same in data set [2]. As to the kind of experiment: ON rate ratio: HPPD reaction rate with vs without inhibitor in the 70 to 90 second interval. The following applies: Table 5; tembotrione. The method in brief: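 Indicator of inhibitor on-rate: reaction velocity in the 70 to 90 second window with 4 μM inhibitor divided by that without. Reactions contained 100 μM HPP and 60 or 120 nM HPPD; slower binding gives a larger ratio.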

For data set [3] the test system is unchanged. As to the kind of experiment: OFF rate ratio: release of inhibitor from pre-formed enzyme-inhibitor complex. The following applies: Table 5; tembotrione. The method in brief:
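Inhibitor release from pre-formed complex (enzyme 7.2 μM, inhibitor 8 μM, 1 h RT) tracked as accelerating HPPD activity at 320 nm over 12 min, coupled via 50 nM HGD with 100 μM HPP at pH 7. OFF rate ratio: steady-state velocity relative to uninhibited initial velocity.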

Data set [4] shares this test system. Description: Insensitivity parameter (ON × OFF) and trait fitness (ON × OFF × kcat/KM or × kcat). The following applies: for ON × OFF × kcat, Value / ON × OFF × kcat, Fold vs wt / ON × OFF, fold vs wt / ON × OFF (parameters with tembotrione): Table 5, tembotrione; for ON × OFF × kcat, Fold vs wt / ON × OFF, fold vs wt: fold vs maize wild type HPPD; for ON × OFF (parameters with tembotrione): insensitivity parameter. The method in brief:
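Trait fitness combines catalysis and insensitivity as kcat/KM × ON rate ratio × OFF rate ratio. The insensitivity parameter is the product of ON and OFF rate ratios, used in place of KD because the ON rate ratio is inverse.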

The test system is the same in data set [5]. Description: Estimate of kcat from initial rate at saturating hydroxyphenylpyruvate without inhibitor (ON rate ratio assay). The following applies: Table 5; single substitutions in Round 7 variant 9070 (SEQ ID NO:2); estimate from initial rate at saturating hydroxyphenylpyruvate without inhibitor. The method in brief: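 kcat was estimated from the initial reaction rate with known enzyme level (60 or 120 nM HPPD). Hydroxyphenylpyruvate was at a saturating 100 μM, with no inhibitor present.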

[6] abbreviates: DKN (diketonitrile form of isoxaflutole).
[7] abbreviates: DKN (isoxaflutole diketonitrile).

B1: 340K: single substitution R340K in SEQ ID NO:2 (protein)
chain: MGPTPTATAAGAAVAAASAAEQAAFRLVGHRNFVRFNPRSDRFQTLAFHHVELWCADAASAAGRFSFALGVPLAARSDLSTGNSAHASLLLRSGSLSLLFTAPYAHGADAATAALPSFSAAAARRFAADHGLAVRAVALRVADAEDAFRASVAAGARPAFGPVDLGRGFRLAEVELYGDVVLRYVSYPDGAAGEPFLPGFEGVASPGAADYGLSRFDHIVGNVPELAPAAAYMAGFTGFHEFAEFTTEDVGTTESGLNSMALANNSENVLLPLNEPVHGTKRRSQIQTFLDHHGGPGVQHIALASDDVLRTLREMRARSAMGGFEFLPPPLSDYYDGVRKCAGDVLTEAQINECQELGVMVDRDDQGVLLQIFTKPVGDRPTFFLEIIQRIGCMEKDEKGQEYQKGGCGGFGKGNFGQLFKSIEDYEKSLEAKQAAAAATAQGS
modifications: Zea mays variant form created by artificial means.
In general, Km refers to the substrate concentration at which the rate is half of its maximum. A word on the kcat: it is the number of substrate molecules converted per active site and unit of time at saturation. As to B1, the Michaelis constant (Km) in data set [1] turned out to be 2.41 µM. For the same molecule, the catalytic constant (kcat) in data set [1] is 1.22 s⁻¹; in data set [5], 0.745 s⁻¹. Also, the “ON ratio (parameters with tembotrione)” value in data set [2] turned out to be 0.75. Besides, the “OFF ratio (parameters with tembotrione)” value in data set [3] is given as 0.20. The “Insensitivity parameter, ON × OFF” value in data set [4] (setting [6]) is on record as 0.23; in data set [4] (Mesotrione, Table 6), 0.44; in data set [4] (Sulcotrione) it was 0.54; in data set [4] (Tembotrione) it was 0.16; in data set [4] (Topramezon), 0.22. Further, the “ON × OFF × kcat/km fold vs Round 7, variant 9070” value (shortened to “ON × OFF × kcat/km fold”) in data set [4] (setting [7]) came out at 2.2; in data set [4] (Sulco (sulcotrione)), 1.3; in data set [4] (Topra (topramezone)), 1.1; in data set [4] (meso (mesotrione)) it was 1.3; in data set [4] (tembo (tembotrione)), 1.2. In data set [4], the “ON × OFF × kcat, Value” is listed as 6.56. For the same molecule, the “ON × OFF × kcat, Fold vs wt” value in data set [4] was 6.13. Also, the “ON × OFF, fold vs wt” value in data set [4] came out at 28.7. Besides, the “ON × OFF (parameters with tembotrione)” value in data set [4] turned out to be 0.15.

B2: 387L: single substitution I387L in SEQ ID NO:2 (protein)
chain: B1 chain with K340R, I387L
modifications: Zea mays variant form created by artificial means.
With B2, the Michaelis constant (Km) in data set [1] was 2.46 µM. Also, the kcat in data set [1] was 1.24 s⁻¹; in data set [5] it was 0.555 s⁻¹. Moreover, the “ON ratio (parameters with tembotrione)” value in data set [2] was determined as 0.75. For the same molecule, the “OFF ratio (parameters with tembotrione)” value in data set [3] was found to be 0.19. Moreover, the “Insensitivity parameter, ON × OFF” value in data set [4] (setting [6]) is on record as 0.26; in data set [4] (Mesotrione, Table 6) it was 0.46; in data set [4] (Sulcotrione), 0.56; in data set [4] (Tembotrione) it was 0.15; in data set [4] (Topramezon), 0.21. Further, the “ON × OFF × kcat/km fold” value was determined as 1.6 in data set [4] (setting [7]); 1.3 in data set [4] (Sulco (sulcotrione)); 1.0 in data set [4] (Topra (topramezone)); 1.3 in data set [4] (meso (mesotrione)); 1.1 in data set [4] (tembo (tembotrione)). In addition, the “ON × OFF × kcat, Value” in data set [4] is given as 4.58. For the same molecule, the “ON × OFF × kcat, Fold vs wt” value in data set [4] is 4.28. Also, the “ON × OFF, fold vs wt” value in data set [4] was found to be 27.0. Moreover, the “ON × OFF (parameters with tembotrione)” value in data set [4] is recorded as 0.14.

B3: 211L: single substitution Y211L in SEQ ID NO:2 (protein)
chain: B1 chain with Y211L, K340R
modifications: Zea mays variant form created by artificial means.
Consider B3, for which the Km in data set [1] was 3.2 µM. In addition, the kcat in data set [1] was 1.29 s⁻¹; in data set [5] it was 0.615 s⁻¹. Further, the “ON ratio (parameters with tembotrione)” value in data set [2] is given as 0.77. For the same molecule, the “OFF ratio (parameters with tembotrione)” value in data set [3] turned out to be 0.17. For the same molecule, the “Insensitivity parameter, ON × OFF” value in data set [4] (setting [6]) turned out to be 0.25; in data set [4] (Mesotrione, Table 6), 0.37; in data set [4] (Sulcotrione) it was 0.47; in data set [4] (Tembotrione), 0.22; in data set [4] (Topramezon) it was 0.27. The “ON × OFF × kcat/km fold” value in data set [4] (setting [7]) was 1.1; in data set [4] (Sulco (sulcotrione)), 0.9; in data set [4] (Topra (topramezone)), 1.1; in data set [4] (meso (mesotrione)), 0.9; in data set [4] (tembo (tembotrione)), 1.1. Also, in data set [4], the “ON × OFF × kcat, Value” is listed as 4.72. The “ON × OFF × kcat, Fold vs wt” value in data set [4] is 4.41. For the same molecule, the “ON × OFF, fold vs wt” value in data set [4] was determined as 25.0. In addition, in data set [4], the “ON × OFF (parameters with tembotrione)” value is 0.13.

B4: 434R: single substitution Q434R in SEQ ID NO:2 (protein)
chain: B1 chain with K340R, Q434R
modifications: Zea mays variant form created by artificial means.
Consider B4, for which the Km in data set [1] amounted to 2.74 µM. Besides, the figures for the kcat in data set [1] and in data set [5] were 1.35 s⁻¹ and 0.868 s⁻¹, respectively. Moreover, in data set [2], the “ON ratio (parameters with tembotrione)” value is given as 0.73. Moreover, the “OFF ratio (parameters with tembotrione)” value in data set [3] was determined as 0.15. Further, the “Insensitivity parameter, ON × OFF” value is reported as 0.18 in data set [4] (setting [6]); 0.39 in data set [4] (Mesotrione, Table 6); 0.47 in data set [4] (Sulcotrione); 0.15 in data set [4] (Tembotrione); 0.22 in data set [4] (Topramezon). Moreover, the “ON × OFF × kcat/km fold” value in data set [4] (setting [7]), in data set [4] (Sulco (sulcotrione)), in data set [4] (Topra (topramezone)), in data set [4] (meso (mesotrione)) and in data set [4] (tembo (tembotrione)) was 1.1 in each case. Further, in data set [4], the “ON × OFF × kcat, Value” was found to be 5.63. The “ON × OFF × kcat, Fold vs wt” value in data set [4] turned out to be 5.26. The “ON × OFF, fold vs wt” value in data set [4] was determined as 21.2. Further, in data set [4], the “ON × OFF (parameters with tembotrione)” value stood at 0.11.

B5: 206S: single substitution P206S in SEQ ID NO:2 (protein)
chain: B1 chain with P206S, K340R
modifications: Zea mays variant form created by artificial means.
In the case of B5, the Michaelis constant (Km) in data set [1] stood at 3.36 µM. Further, the catalytic constant (kcat) is 1.13 s⁻¹ in data set [1] and 0.592 s⁻¹ in data set [5]. The “ON ratio (parameters with tembotrione)” value in data set [2] stood at 0.75. Also, the “OFF ratio (parameters with tembotrione)” value in data set [3] is 0.20. For the same molecule, the “Insensitivity parameter, ON × OFF” value turned out to be 0.29 in data set [4] (setting [6]); 0.46 in data set [4] (Mesotrione, Table 6); 0.53 in data set [4] (Sulcotrione); 0.20 in data set [4] (Tembotrione); 0.29 in data set [4] (Topramezon). Further, the “ON × OFF × kcat/km fold” value in data set [4] (setting [7]) came to 1.1; in data set [4] (Sulco (sulcotrione)), 0.8; in data set [4] (Topra (topramezone)), 1.0; in data set [4] (meso (mesotrione)), 0.9; in data set [4] (tembo (tembotrione)), 1.1. Moreover, in data set [4], the “ON × OFF × kcat, Value” is recorded as 5.15. The “ON × OFF × kcat, Fold vs wt” value in data set [4] amounted to 4.82. Also, in data set [4], the “ON × OFF, fold vs wt” value came to 28.5. Further, the “ON × OFF (parameters with tembotrione)” value in data set [4] is given as 0.15.

The values are drawn from patent US11015206B2, “Compositions and methods comprising sequences having hydroxyphenylpyruvate dioxygenase (HPPD) activity” (PIONEER HI-BRED INTERNATIONAL, INC., priority 2014, dated 2021).
